T1: Spn-F-FLAG, Q9V9Y9
T1 chain: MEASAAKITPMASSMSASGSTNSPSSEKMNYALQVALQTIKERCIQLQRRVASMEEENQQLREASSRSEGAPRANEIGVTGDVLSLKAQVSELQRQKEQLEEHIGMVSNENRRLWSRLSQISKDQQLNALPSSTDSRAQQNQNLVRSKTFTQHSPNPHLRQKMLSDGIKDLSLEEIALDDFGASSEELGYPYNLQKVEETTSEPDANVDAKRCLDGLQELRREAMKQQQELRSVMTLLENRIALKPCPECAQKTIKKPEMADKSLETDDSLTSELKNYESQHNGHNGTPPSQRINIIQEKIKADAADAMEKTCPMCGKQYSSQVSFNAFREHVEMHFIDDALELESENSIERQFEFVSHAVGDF


Legend:
Spn-F-FLAG = Spn-F-FLAG (UniProt Q9V9Y9); test: co-immunoprecipitation (IP anti-FLAG, IB myc, band ratio by ImageJ); conditions: lysates of S2 cells co-expressing SpnF-FLAG and myc-Rab11; parent: 1
Spn-F-FLAG, Q9V9Y9 = target: T1, Spn-F-FLAG, Q9V9Y9; test: as above; conditions: chain shown with the change; lysates of S2 cells co-expressing SpnF-FLAG and myc-Rab11; parent: 1

Row | other: myc/FLAG ratio (Spn-F-FLAG) | other: myc/FLAG ratio (Spn-F-FLAG, Q9V9Y9) | Molecule
1 | 0.14 |  | myc-Rab11 (from UniProt O18335) CA
2 |  | 1.07 | myc-Rab11, O18335 S25N (protein) MGAREDEYDYLFKVVLIGDSGVGKNNLLSRFTRNEFNLESKSTIGVEFATRSIEVDGKTIKAQIWDTAGQERYRAITSAYYRGAVGALLVYDIAKHLTYENVERWLRELRDHADQNIVIMLVGNKSDLRHLRSVPTDEAKLFAERNGLSFIETSALDSTNVETAFQNILTEIYRIVSQKQIRDPPEGDVIRPSNVEPIDVKPTVTADVRKQCCQ

— PMC7046344
